Measurements taken from patent US20060069024A1 (PURDUE RESEARCH FOUNDATION, published 2006).

Legend:
[1] = target: T1, STE7-Myc fusion protein (Saccharomyces cerevisiae, UniProt P06784 1-515, limits assumed); experiment: pull-down with osmotin-Sepharose 4B, anti-myc (myc1-9E10) immunoblot
T1 construct: Used as a cell extract of BWG7a expressing the fusion, as a control for the c-myc tag; also called c-myc tagged STE7; pNC267 product; not shown: Myc tag
T1 sequence (looked up): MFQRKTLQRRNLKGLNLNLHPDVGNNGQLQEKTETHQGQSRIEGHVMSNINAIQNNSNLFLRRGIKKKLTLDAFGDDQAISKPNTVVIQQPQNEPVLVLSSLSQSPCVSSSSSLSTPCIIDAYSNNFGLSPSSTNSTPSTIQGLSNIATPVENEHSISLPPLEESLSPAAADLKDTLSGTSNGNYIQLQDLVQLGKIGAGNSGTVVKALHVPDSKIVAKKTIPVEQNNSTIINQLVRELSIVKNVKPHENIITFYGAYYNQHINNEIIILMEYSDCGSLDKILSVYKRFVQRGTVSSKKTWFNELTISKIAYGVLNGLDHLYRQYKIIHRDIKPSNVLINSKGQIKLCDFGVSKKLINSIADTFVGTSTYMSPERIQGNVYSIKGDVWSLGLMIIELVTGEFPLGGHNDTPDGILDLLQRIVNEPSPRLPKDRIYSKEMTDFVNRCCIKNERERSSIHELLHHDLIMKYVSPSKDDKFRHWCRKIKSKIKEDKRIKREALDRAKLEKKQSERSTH
Procedure: FIG. 4: PHO36 Interacts Specifically with Osmotin In Vitro and In Vivo. A. Osmotin-Sepharose 4B was incubated with cell extract of the strain BWG7a expressing the fusion protein STE7-Myc (lane 1), total membrane fraction purified from the strain ΔPHO36 (lane 2) or total membrane fraction purified from the strain BWG7a expressing c-myc tagged PHO36 from the plasmid pPHO36MH (lanes 3-8) in the absence (lanes 1, 2, and 5) or presence of the competitor proteins A9 (100 μg, lane 3; or 10 μg, lane 7), osmotin (Osm; 100 μg, lane 4; or 10 μg, lane 6), or BSA (100 μg, lane 8). After extensive washing, bound proteins were dissociated, separated by SDS-PAGE and the c-Myc tag was immunodetected with mycl-9E10 antibodies. B. Spheroplasts (10⁹ml⁻¹) derived from the Δpho36 mutant (Δpho36), and the wild-type strain BWG7a carrying the plasmid pPHO36MH (pPHO36) were incubated with ³⁵S-osmotin (0.4 μM, 0.16 μCi) for 1 hr, without (none) or with a 10-fold molar excess of A9, BSA, or osmotin as competitors. After extensive washing, ³⁵S-osmotin retained on spheroplasts was counted.
Protein interaction assays in solution. Osmotin was coupled to CNBr-activated Sepharose 4B (Pharmacia Biotech) according to the manufacturer's instructions. […]

[2] = target: T2, PHO36t (product of the truncated PHO36 cDNA isolated in the screen) (Saccharomyces cerevisiae, UniProt Q12442 116-317, limits assumed); experiment: cell-based or functional assay
T2 sequence (looked up): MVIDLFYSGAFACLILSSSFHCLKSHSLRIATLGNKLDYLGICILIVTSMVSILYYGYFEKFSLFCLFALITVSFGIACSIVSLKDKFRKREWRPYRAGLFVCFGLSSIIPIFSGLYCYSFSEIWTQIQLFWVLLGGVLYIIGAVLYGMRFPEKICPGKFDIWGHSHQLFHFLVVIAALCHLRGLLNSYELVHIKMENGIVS

[3] = target: T3, PHO36 (endogenous, wild-type strain BWG7a) (Saccharomyces cerevisiae, UniProt Q12442 1-317); experiment: cell-based or functional assay
T3 sequence (looked up): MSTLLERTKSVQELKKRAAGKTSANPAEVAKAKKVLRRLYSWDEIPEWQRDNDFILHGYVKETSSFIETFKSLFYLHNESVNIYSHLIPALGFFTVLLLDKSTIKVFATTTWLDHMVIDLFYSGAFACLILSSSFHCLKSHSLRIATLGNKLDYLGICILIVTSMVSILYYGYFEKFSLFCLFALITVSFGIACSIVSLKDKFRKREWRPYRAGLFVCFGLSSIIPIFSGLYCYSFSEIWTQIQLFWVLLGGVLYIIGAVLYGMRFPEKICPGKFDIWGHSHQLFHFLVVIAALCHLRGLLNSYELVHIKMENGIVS

[4] = target: T4, PHO36MH (PHO36 with c-myc epitope and hexa-His tag fused in-frame at the C-terminus) (Saccharomyces cerevisiae, UniProt Q12442 1-317); experiment: 35S-osmotin binding to yeast spheroplasts, scintillation counting, non-specific binding subtracted
T4 construct: whole, on cells; Overexpressed in BWG7a from the multicopy plasmid pPHO36MH; It was used as a detergent-solubilised total membrane fraction in the pull-down and on spheroplasts in the 35S-osmotin assay; Bands of about 36 and 72 kDa were read as monomers and dimers; also called c-myc tagged PHO36; recombinant PHO36MH; not shown: c-myc tag; hexa-His tag
T4 sequence (looked up): T3 sequence (looked up)
Procedure: After extensive washing, bound proteins were dissociated, separated by SDS-PAGE and the c-Myc tag was immunodetected with mycl-9E10 antibodies. B. Spheroplasts (10⁹ml⁻¹) derived from the Δpho36 mutant (Δpho36), and the wild-type strain BWG7a carrying the plasmid pPHO36MH (pPHO36) were incubated with ³⁵S-osmotin (0.4 μM, 0.16 μCi) for 1 hr, without (none) or with a 10-fold molar excess of A9, BSA, or osmotin as competitors. After extensive washing, ³⁵S-osmotin retained on spheroplasts was counted.
³⁵S-Osmotin Binding Assay. Osmotin was radiolabeled to a specific-activity of 12 Ci mmol⁻¹ using the ³⁵SLR reagent (Amersham), according to manufacturer's instructions. Yeast cells were grown YPD medium until A₆₀₀ₙₘ 0.6 and then harvested by centrifugation. The pellet was resuspended in 1M sorbitol (A₆₀₀ₙₘ 6) and treated with lyticase (100 U ml⁻¹). After digestion of the cell wall was completed, spheroplasts were collected by centrifugation, washed twice with 1M sorbitol and resuspended in 1M sorbitol (10⁹ml⁻¹). The binding reaction was initiated by the addition of 2 μl of 35S-osmotin (1 μCi, 3 μg) to 300 μl of spheroplasts (0.3×10⁹). […] Spheroplasts were collected by centrifugation, washed twice, resuspended 1M sorbitol (50 μl) and counted in a liquid scintillation counter in 5 ml of EcoLume™ (ICN Biomedicals). […]

B1: osmotin (ligand)
chain: ATIEVRNNCPYTVWAASTPIGGGRRLDRGQTWVINAPRGTKMARVWGRTNCNFNAAGRGTCQTGDCGGVLQCTGWGKPPNTLAEYALDQFSGLDFWDISLVDGFNIPMTFAPTNPSGGKCHAIHCTANINGECPRELRVPGGCNNPCTTFGGQQYCCTQGPCGPTFFSKFFKQRCPDAYSYPQDDPTSTFTCPGGSTNYRVIFCPNGQAHPNFPLEMPGSDEVAK
notes: Purified osmotin (26 kDa globular protein, mostly a monomer in solution); also called tobacco PR-5 protein; 35S-osmotin
binding result [1]: no binding | IC50 for osmotin of cells overexpressing PHO36t (viable counts after one hour of osmotin treatment, galactose medium) [2]: 200 nM | fold change of IC50 for osmotin, cells overexpressing PHO36t against control cells with the empty vector [2]: 3 fold | IC50 for osmotin of control cells transformed with the empty vector (viable counts after one hour of osmotin treatment, galactose medium) [3]: 600 nM | IC50 for osmotin of the wild type strain (compared with the PHO36 disruptant) [3]: 600 nM | fold 35S-osmotin bound, spheroplasts of the PHO36MH-overexpressing strain against the wild-type strain with empty vector [4]: ~3 times
